These results are taken from patent US20020103111A1, “Inhibitors of MAdCAM-1-mediated interactions and methods of use therefor” (Millennium Pharmaceuticals, Inc., priority 1996, published 2002).

Square brackets hold non-standard residues; d marks the D form. Ends that are not written are not given here. NMeL = CN[C@@H](CC(C)C)C(=O)O

As usually defined, the IC50 is the concentration that inhibits the measured activity by half. Low readings indicate inhibition by little substance, high ones a need for much substance.

The first experiment has as its target human α4β7 integrin (human) (UniProt P13612). Nature of the experiment: inhibition of HUT 78 cell adhesion to murine MAdCAM-1/mCk at 500 µM.
Take Ac-HWRGLDTSLGSV: the % Adhesion Inhibition was 71%.

With Ac-Lle-Asp-Thr-Ser-Leu (peptide), the % Adhesion Inhibition is 17%. The same measure, in the same setting: for Ac-RGLDTSLG the value was 75%. Same read-out and setting: for Ac-RVHWRGLDTSLGSVQ the value was 88%; for Ac-WRGLDTSLGS, 71%; for Ac-[NMeL]LDTSL, 28%. As to H-HWRGLDTSLGSV, the % Adhesion Inhibition stood at 80%. The same measure, in the same setting: the figure for H-RVHWRGLDTSLGSVQ is 90%; for H-WRGLDTSLGS it is 76%. As to NH2-Leu-Asp-Thr-Ser-Leu (peptide), the % Adhesion Inhibition was 22%.

Take [NMeL]LDTSL: the % Adhesion Inhibition amounted to 54%.

The target is the same in the next experiment. Nature of the experiment: inhibition of HUT 78 cell adhesion to murine MAdCAM-1/mCk.
Take 2-Anc-Leu-Asp-Thr-Ser-Leu (peptide): the concentration for half-maximal inhibition (IC50) came to 5.4 µM. Same read-out and setting: the figure for Ac-MeLeu-Asp-Thr-Ser-Leu (peptide) is 150 µM; for Ac-[NMeL]LDTSL it is 1320 µM; for Cpc-Asp-Thr-Ser-Leu (peptide) it is 8.9 µM. Still for that read-out and setting: for Dphb-Leu-Asp-Thr-Ser-Leu (peptide) the value was 15 µM. Same read-out and setting: for Pba-Asp-Thr (peptide) the value was 13.5 µM. Pba-Asp-Thr-Ser-Leu (peptide) registered an IC50 of 13.3 µM.

In turn, “Pba-Leu-Asp-Thr-Ser-Leu (00789-1A) (peptide)” came in with a half-maximal inhibitory concentration (IC50) of 4 µM. Pca-Asp-Thr (peptide) had an IC50 of 11 µM. On the same count and under the same terms, for Pca-Leu-Asp-Thr-Ser-Leu (peptide) the value was 2.1 µM. The same measure, in the same setting: the figure for [NMeL]LDTSL is 256 µM.

The next experiment has the same target. The experiment is described as follows: inhibition of HUT 78 cell adhesion to murine MAdCAM-1/mCk at 100 µM.
Pba-Asp-Thr (peptide) gave a % Adhesion Inhibition of 100%. As for Pba-Asp-Thr-Ser-Leu (peptide), the % Adhesion Inhibition stood at 100%.

For another experiment the target is unchanged. The experiment is described as follows: RPMI 8866 adhesion to chimera on Protein A; neat; after control MAb 2G7.
In turn, “human MAdCAM-1-IgG chimera (huMAdCAM-1-Ig, construct HuMAdIg21) (from UniProt P01857 1-330) (Fc fusion)” gave a bound cells (raw fluorescence) of 196000.
